{"source": "paper PMC10454580", "about": "“Exploring the Binding Affinity of the ARR2 GARP DNA Binding Domain via Comparative Methods”", "settings_in_all_cases": "protein: recombinant; tags: N-terminal 8xHis-MBP; label: 5' biotin on antisense strand (DPI-ELISA); 5' Alexa647 on antisense strand (FCS); unlabeled (MST); blunt", "key": {"[1]": {"biological_target": "T1, His8-MBP-GARP2 (ARR2 GARP DNA-binding domain) (UniProt Q9ZWJ9 211-275)", "T1 sequence": "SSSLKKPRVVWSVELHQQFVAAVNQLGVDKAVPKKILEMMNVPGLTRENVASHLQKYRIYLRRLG", "test": "MST; back diffusion 8/7; bounds 61.0-374.4; MST: PBS-T, 250 nM protein, 25 nM RED-tris-NTA, 40% MST power, 22-26 C; FCS: PBS, 25 C; qDPI-ELISA: TBS/TBS-T (20 mM Tris, 0.18 M NaCl, pH 7.5, 0.1% Tween-20)"}, "[2]": {"biological_target": "T1, His8-MBP-GARP2 (ARR2 GARP DNA-binding …)", "test": "MST; inverse T-jump 6/5; bounds 471.3-1412.8; MST: PBS-T, 250 nM protein, 25 nM RED-tris-NTA, 40% MST power, 22-26 C; FCS: PBS, 25 C; qDPI-ELISA: TBS/TBS-T (20 mM Tris, 0.18 M NaCl, pH 7.5, 0.1% Tween-20)"}, "[3]": {"biological_target": "T1, His8-MBP-GARP2 (ARR2 GARP DNA-binding …)", "test": "MST; thermophoresis 41/3; bounds 250.9-787.3; MST: PBS-T, 250 nM protein, 25 nM RED-tris-NTA, 40% MST power, 22-26 C; FCS: PBS, 25 C; qDPI-ELISA: TBS/TBS-T (20 mM Tris, 0.18 M NaCl, pH 7.5, 0.1% Tween-20)"}, "[4]": {"biological_target": "T1, His8-MBP-GARP2 (ARR2 GARP DNA-binding …)", "test": "MST; thermophoresis 42/3; bounds 259.5-988.2; MST: PBS-T, 250 nM protein, 25 nM RED-tris-NTA, 40% MST power, 22-26 C; FCS: PBS, 25 C; qDPI-ELISA: TBS/TBS-T (20 mM Tris, 0.18 M NaCl, pH 7.5, 0.1% Tween-20)"}, "[5]": {"biological_target": "T1, His8-MBP-GARP2 (ARR2 GARP DNA-binding …)", "test": "MST; thermophoresis 43/3; bounds 260.4-960.9; MST: PBS-T, 250 nM protein, 25 nM RED-tris-NTA, 40% MST power, 22-26 C; FCS: PBS, 25 C; qDPI-ELISA: TBS/TBS-T (20 mM Tris, 0.18 M NaCl, pH 7.5, 0.1% Tween-20)"}, "[6]": {"biological_target": "T1, His8-MBP-GARP2 (ARR2 GARP DNA-binding …)", "test": "MST; thermophoresis 44/3; bounds 229.7-868.7; MST: PBS-T, 250 nM protein, 25 nM RED-tris-NTA, 40% MST power, 22-26 C; FCS: PBS, 25 C; qDPI-ELISA: TBS/TBS-T (20 mM Tris, 0.18 M NaCl, pH 7.5, 0.1% Tween-20)"}, "[7]": {"biological_target": "T1, His8-MBP-GARP2 (ARR2 GARP DNA-binding …)", "test": "MST; T-jump region 2/1; ESP bounds 33.9-203.5; MST: PBS-T, 250 nM protein, 25 nM RED-tris-NTA, 40% MST power, 22-26 C; FCS: PBS, 25 C; qDPI-ELISA: TBS/TBS-T (20 mM Tris, 0.18 M NaCl, pH 7.5, 0.1% Tween-20)"}, "[8]": {"biological_target": "T1, His8-MBP-GARP2 (ARR2 GARP DNA-binding …)", "test": "MST; thermophoresis 45/3; bounds 218.2-1077.2; MST: PBS-T, 250 nM protein, 25 nM RED-tris-NTA, 40% MST power, 22-26 C; FCS: PBS, 25 C; qDPI-ELISA: TBS/TBS-T (20 mM Tris, 0.18 M NaCl, pH 7.5, 0.1% Tween-20)"}, "[9]": {"biological_target": "T1, His8-MBP-GARP2 (ARR2 GARP DNA-binding …)", "test": "MST; thermophoresis 46/3; bounds 192.7-1173.8; MST: PBS-T, 250 nM protein, 25 nM RED-tris-NTA, 40% MST power, 22-26 C; FCS: PBS, 25 C; qDPI-ELISA: TBS/TBS-T (20 mM Tris, 0.18 M NaCl, pH 7.5, 0.1% Tween-20)"}, "[10]": {"biological_target": "T1, His8-MBP-GARP2 (ARR2 GARP DNA-binding …)", "test": "MST; thermophoresis 47/3; bounds 202.0-1474.6; MST: PBS-T, 250 nM protein, 25 nM RED-tris-NTA, 40% MST power, 22-26 C; FCS: PBS, 25 C; qDPI-ELISA: TBS/TBS-T (20 mM Tris, 0.18 M NaCl, pH 7.5, 0.1% Tween-20)"}, "[11]": {"biological_target": "T1, His8-MBP-GARP2 (ARR2 GARP DNA-binding …)", "test": "MST; thermophoresis 48/3; bounds 240.8-1742.8; MST: PBS-T, 250 nM protein, 25 nM RED-tris-NTA, 40% MST power, 22-26 C; FCS: PBS, 25 C; qDPI-ELISA: TBS/TBS-T (20 mM Tris, 0.18 M NaCl, pH 7.5, 0.1% Tween-20)"}, "[12]": {"biological_target": "T1, His8-MBP-GARP2 (ARR2 GARP DNA-binding …)", "test": "MST; thermophoresis 49/3; bounds 200.6-1912.2; MST: PBS-T, 250 nM protein, 25 nM RED-tris-NTA, 40% MST power, 22-26 C; FCS: PBS, 25 C; qDPI-ELISA: TBS/TBS-T (20 mM Tris, 0.18 M NaCl, pH 7.5, 0.1% Tween-20)"}, "[13]": {"biological_target": "T1, His8-MBP-GARP2 (ARR2 GARP DNA-binding …)", "test": "MST; thermophoresis 410/3; bounds 211.1-2267.5; MST: PBS-T, 250 nM protein, 25 nM RED-tris-NTA, 40% MST power, 22-26 C; FCS: PBS, 25 C; qDPI-ELISA: TBS/TBS-T (20 mM Tris, 0.18 M NaCl, pH 7.5, 0.1% Tween-20)"}}, "data": [{"binder": "wtOligo (ARR5 promoter fragment) (dsDNA) DNA 1: TTAACAATCTCAAAGATTTTGTAGATTGAAATACAAATCTTCTCT DNA 2: AGAGAAGATTTGTATTTCAATCTACAAAATCTTTGAGATTGTTAA", "values": [{"measurement": "Kd", "setting": "[1]", "value": "166 ± 74.3", "unit": "nM"}, {"measurement": "Kd", "setting": "[2]", "value": "826 ± 222", "unit": "nM"}, {"measurement": "Kd", "setting": "[3]", "value": "456 ± 132", "unit": "nM"}, {"measurement": "Kd", "setting": "[4]", "value": "526 ± 178", "unit": "nM"}, {"measurement": "Kd", "setting": "[5]", "value": "520 ± 172", "unit": "nM"}, {"measurement": "Kd", "setting": "[6]", "value": "462 ± 163", "unit": "nM"}, {"measurement": "Kd", "setting": "[7]", "value": "93.3 ± 40.3", "unit": "nM"}, {"measurement": "Kd", "setting": "[8]", "value": "510 ± 212", "unit": "nM"}, {"measurement": "Kd", "setting": "[9]", "value": "506 ± 246", "unit": "nM"}, {"measurement": "Kd", "setting": "[10]", "value": "578 ± 317", "unit": "nM"}, {"measurement": "Kd", "setting": "[11]", "value": "679 ± 376", "unit": "nM"}, {"measurement": "Kd", "setting": "[12]", "value": "660 ± 419", "unit": "nM"}, {"measurement": "Kd", "setting": "[13]", "value": "738 ± 505", "unit": "nM"}]}]}
